Results taken from US20160145328A1 (published 2016).
Changes are numbered by the printed parent chain. Numbers in names are those of the source.

B1: scFv DP47 VH A33D - linker - common VL (scFv, name in Kabat numbering)
scFv: QVQLLESGGGLVQPGGSLRLSCAASGFTFSSYDMSWVRQAPGKGLEWVSAISGSGGSTYYADSVKGRFTISRDNSKNTLYLQMNSLRAEDTAVYYCAKSYGAFDYWGQGTLVTVSSGGGGSGGGGSGGGGSTDIQMTQSPSSLSASVGDRVTITCRASQSISSYLNWYQQKPGKAPKLLIYAYSDLQSGVPSGFSGSGSGTDFTLTISSLQPEDFATYYCQQLMTHPTTFGQGTKVEIKR
notes: also called A33D (scFv)
B2: scFv DP47 VH S35G - linker - common VL (scFv, name in Kabat numbering)
scFv: B1 scFv with D33A, S35G
notes: also called S35G (scFv)
B3: scFv DP47 VH Y32E - linker - common VL (scFv)
scFv: B1 scFv with Y32E, D33A
notes: also called Y32E (scFv)
B4: scFv DP47 VH S31D - linker - common VL (scFv)
scFv: B1 scFv with S31D, D33A
notes: also called S31D (scFv)
B5: scFv DP47 VH T28R - linker - common VL (scFv, name in Kabat numbering)
scFv: B1 scFv with T28R, D33A
notes: also called T28R (scFv)

Target: T1, protein A (UniProt P38507 37-477)
T1 construct: also called Protein A superantigen
Assay: Heat/Cool phage ELISA: phage-displayed scFv, 80 C 10 min then 4 C 10 min, captured on coated protein A; signal as % of untreated sample
Description: The aggregation-resistance of clones was analyzed by measuring retention of signal after heat incubation in a phage ELISA format (McCafferty et al., 1990; Jespers et al., 2004). Wells of a Nunc Maxisorp Immuno-plate were coated overnight with protein A at a concentration of about 5 μg/ml in phosphate-buffered saline (PBS). The plate was washed once with PBS and blocked with about 4% (w/v) milk powder diluted in PBS (MPBS). Single colonies were picked from agar plates and grown overnight in 2×TY medium (containing about 16 g/L tryptone; about 10 g/L yeast extract; about 5 g/L NaCl, pH 7.0) supplemented with about 15 μg/ml tetracycline shaking at about 30° C. Cells were removed by centrifugation and phages were biotinylated directly in the culture supernatant by adding biotin-PEO₄-N-hydroxysuccinimide (Pierce; about 50 μM final concentration). For heat selection, supernatant was first incubated at about 80° C. for about 10 min and then at about 4° C. for about 10 min. Supernatant was added to the blocked ELISA wells. After three washes with PBS, bound phage particles were detected using an Extravidin-HRP conjugate (Sigma) and 3,3′,5,5′-tetramethylbenzidine (TMB) substrate. Absorbance was calculated by subtracting measurements at 450 and 650 nm.
The DP47-CDR1 mutants described above were paired with a common single variable light chain (VL; SEQ ID NO: 3) via a linker (SEQ ID NO: 4) in a scFv format (see the Materials and Methods section for full experimental details). […] Correctly folded scFv were captured by protein A ELISA and the absorbance signal of the treated sample was calculated as a percentage of the untreated sample.

Row | Binder | Retained binding to protein A [%]
1 | B1 | 22
2 | B2 | 5
3 | B3 | 27
4 | B4 | 29
5 | B5 | 4
